Experimental data reported in article PMC9352680, “A comprehensive thermodynamic model for RNA binding by the Saccharomyces cerevisiae Pumilio protein PUF4”.

Molecular target: T1, PUF4 RNA-binding domain (Saccharomyces cerevisiae, UniProt P25339 537-888)
T1 sequence: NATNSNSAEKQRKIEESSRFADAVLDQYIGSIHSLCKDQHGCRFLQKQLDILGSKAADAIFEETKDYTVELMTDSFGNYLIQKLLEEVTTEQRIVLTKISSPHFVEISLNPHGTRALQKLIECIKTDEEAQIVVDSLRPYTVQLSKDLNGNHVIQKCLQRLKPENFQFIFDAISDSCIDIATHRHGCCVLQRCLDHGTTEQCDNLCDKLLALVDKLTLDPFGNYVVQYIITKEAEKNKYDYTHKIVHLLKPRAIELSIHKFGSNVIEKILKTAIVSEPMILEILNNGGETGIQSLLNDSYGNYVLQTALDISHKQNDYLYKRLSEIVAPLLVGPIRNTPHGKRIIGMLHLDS
Experiment: Mg; RNA-MaP; 20 mM Na-HEPES pH 7.4, 30 mM KOAc, 0.75 mM MgCl2, 0.1% Tween-20, 5% glycerol, 0.1 mg/mL BSA, 2 mM DTT; 25 C; 0.0125-409.6 nM protein
Settings: tags: N-His6-TEV cleaved; C-SNAP kept, Cy3B-labelled; label: tethered on chip by stalled RNA polymerase

UCUCUUUGUCUCAUUAUCUCUU (ssRNA) [Ib_S1_P5E.1_K5.1_C5.1_H5.1_[A4C]_A5.1_[T6C]_F5.1_T5.1]
Kd: 35.9 nM

UCUCUUUCCUGUAAAUAUAUCUCUU (ssRNA) [Id_iii_S1_P3E.8_K3.4_C3.3_[T-1C]_H3.1_A3.2_F3.1_T3.2]
Kd: 11.1 nM

UCUCUUUCAUGUAAAUAUAUCUCUU (ssRNA) [Id_iii_S1_P3E.8_K3.4_C3.3_[T-1A]_H3.1_A3.2_F3.1_T3.2]
Kd: 19.7 nM

UCUCUUUCUUGUAAAUAAAUCUCUU (ssRNA) [Id_iii_S1_P3E.8_K3.4_C3.3_H3.1_A3.2_F3.1_T3.2_[T9A]]
Kd: 40.2 nM

UCUCUUUCUUGUAAAUAUGUCUCUU (ssRNA) [Id_iii_S1_P3E.8_K3.4_C3.3_H3.1_A3.2_F3.1_T3.2_[A10G]]
Kd: 28.7 nM

UCUCUUUCUUGUAAAUAUCUCUCUU (ssRNA) [Id_iii_S1_P3E.8_K3.4_C3.3_H3.1_A3.2_F3.1_T3.2_[A10C]]
Kd: 27.6 nM

UCUCUUUUUUGUAAAAAUAUCUCUU (ssRNA) [Id_iii_S1_P3E.9_K3.5_C3.3_[C-2T]_H3.1_A3.2_F3.2_T3.2]
Kd: 78.2 nM

UCUCUUCCUUGUAUAUUAGUUCUCUU (ssRNA) [Id_iii_S1_P4E.5_K4.1_C4.3_[T-3C]_H4.1_A4.1_F4.1_T4.2]
Kd: 0.347 nM

UCUCUUUGUUGUAUAUUAGUUCUCUU (ssRNA) [Id_iii_S1_P4E.5_K4.1_C4.3_[C-2G]_H4.1_A4.1_F4.1_T4.2]
Kd: 0.332 nM

UCUCUUUUUUGUAUAUUAGUUCUCUU (ssRNA) [Id_iii_S1_P4E.5_K4.1_C4.3_[C-2T]_H4.1_A4.1_F4.1_T4.2]
Kd: 0.395 nM

UCUCUUUAUUGUAUAUUAGUUCUCUU (ssRNA) [Id_iii_S1_P4E.5_K4.1_C4.3_[C-2A]_H4.1_A4.1_F4.1_T4.2]
Kd: 0.362 nM

UCUCUUUGUCUAAUUAUCUCUU (ssRNA) [Ib_S1_P5E.1_K5.1_C5.1_H5.1_[A4C]_A5.1_[T6A]_F5.1_T5.1]
Kd: 115 nM

UCUCUUUCGUGUAUAUUAGUUCUCUU (ssRNA) [Id_iii_S1_P4E.5_K4.1_C4.3_[T-1G]_H4.1_A4.1_F4.1_T4.2]
Kd: 0.46 nM

UCUCUUUCAUGUAUAUUAGUUCUCUU (ssRNA) [Id_iii_S1_P4E.5_K4.1_C4.3_[T-1A]_H4.1_A4.1_F4.1_T4.2]
Kd: 0.332 nM

UCUCUUUCUUGUAUAUUACUUCUCUU (ssRNA) [Id_iii_S1_P4E.5_K4.1_C4.3_H4.1_A4.1_F4.1_T4.2_[G10C]]
Kd: 1.02 nM

UCUCUUUCUUGUAUAUUAUUUCUCUU (ssRNA) [Id_iii_S1_P4E.5_K4.1_C4.3_H4.1_A4.1_F4.1_T4.2_[G10T]]
Kd: 0.649 nM

UCUCUUUUUUAUAUAUUAGUUCUCUU (ssRNA) [Id_iii_S1_P4E.6_K4.2_C4.3_[C-2T]_H4.2_A4.1_F4.1_T4.2]
Kd: 11 nM

UCUCUUUCUUAUAUAUUACUUCUCUU (ssRNA) [Id_iii_S1_P4E.6_K4.2_C4.3_H4.2_A4.1_F4.1_T4.2_[G10C]]
Kd: 15.9 nM

UCUCUUUCUUAUAUAUUAUUUCUCUU (ssRNA) [Id_iii_S1_P4E.6_K4.2_C4.3_H4.2_A4.1_F4.1_T4.2_[G10T]]
Kd: 15.1 nM

UCUCUUUCUUAUAUAUUAAUUCUCUU (ssRNA) [Id_iii_S1_P4E.6_K4.2_C4.3_H4.2_A4.1_F4.1_T4.2_[G10A]]
Kd: 18.1 nM

UCUCUUUCUUAUAUAUUAGCUCUCUU (ssRNA) [Id_iii_S1_P4E.6_K4.2_C4.3_H4.2_A4.1_F4.1_T4.2_[T11C]]
Kd: 8.45 nM

UCUCUUUGUACACUAUUAGUUCUCUU (ssRNA) [Id_iii_S1_P4E.7_K4.3_C4.3_[C-2G]_H4.3_A4.1_F4.1_T4.2]
Kd: 1.04 nM

UCUCUUUGUUUGAUUAUCUCUU (ssRNA) [Ib_S1_P5E.1_K5.1_C5.1_H5.1_[A4T]_A5.1_[T6G]_F5.1_T5.1]
Kd: 122 nM

UCUCUUUUUACACUAUUAGUUCUCUU (ssRNA) [Id_iii_S1_P4E.7_K4.3_C4.3_[C-2T]_H4.3_A4.1_F4.1_T4.2]
Kd: 1680 nM

UCUCUUUAUACACUAUUAGUUCUCUU (ssRNA) [Id_iii_S1_P4E.7_K4.3_C4.3_[C-2A]_H4.3_A4.1_F4.1_T4.2]
Kd: 39.2 nM

UCUCUUUCUACACUAUUACUUCUCUU (ssRNA) [Id_iii_S1_P4E.7_K4.3_C4.3_H4.3_A4.1_F4.1_T4.2_[G10C]]
Kd: 2190 nM

UCUCUUUCUACACUAUUAUUUCUCUU (ssRNA) [Id_iii_S1_P4E.7_K4.3_C4.3_H4.3_A4.1_F4.1_T4.2_[G10T]]
Kd: > 2300 nM

UCUCUUUCUACACUAUUAAUUCUCUU (ssRNA) [Id_iii_S1_P4E.7_K4.3_C4.3_H4.3_A4.1_F4.1_T4.2_[G10A]]
Kd: > 2300 nM

UCUCUUUGUUGUAUUUUAGUUCUCUU (ssRNA) [Id_iii_S1_P4E.8_K4.4_C4.3_[C-2G]_H4.1_A4.2_F4.1_T4.2]
Kd: 2.23 nM

UCUCUUUUUUGUAUUUUAGUUCUCUU (ssRNA) [Id_iii_S1_P4E.8_K4.4_C4.3_[C-2T]_H4.1_A4.2_F4.1_T4.2]
Kd: 1.81 nM

UCUCUUUCGUGUAUUUUAGUUCUCUU (ssRNA) [Id_iii_S1_P4E.8_K4.4_C4.3_[T-1G]_H4.1_A4.2_F4.1_T4.2]
Kd: 1.23 nM
